Source: patent US7422862B2, “Methods for identifying modulators of apoptosis” (The Burnham Institute, priority 2001, dated 2008)

Tests used:
RFP-Bax = molecular target: T1, RFP-Bax (Homo sapiens, UniProt Q07812); assay: Cellular co-localization in Cos-7 cells (confocal microscope); assay type: cell-based
T1 construct: expressed in transfected cells; host or cells: Cos-7
Excerpt: GFP-HN and a Red Fluorecence Protein (RFP) vector, RFP-Bax, were transfected into Cos-7 cells. The intracellular localization of the expressed polypeptides was examined using a confocal microscope. […] GFP-HN localized to punctate intracellular membranes and when GFP-HN and RFP-Bax were co-expressed, the two polypeptides co-localized to intracellular membranes (data not shown).

t-Bid [1] = molecular target: T2, t-Bid (Homo sapiens, UniProt P55957); assay: Co-immunoprecipitation of Humanin with t-Bid in 293T cells; assay type: binding; design: expressed in transfected cells
T2 sequence (P55957 61-195 limits assumed): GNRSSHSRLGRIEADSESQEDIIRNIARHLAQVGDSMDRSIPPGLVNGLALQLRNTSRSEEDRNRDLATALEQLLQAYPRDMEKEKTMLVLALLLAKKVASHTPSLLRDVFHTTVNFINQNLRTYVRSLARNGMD
Experimental: The lysates were immunoprecipitated with (A) anti-GFP antibody or (B) anti-tBid antibody and blotted with (A) anti-HA antibody or (B) anti-GFP antibody. The data shown were obtained using the cytosolic form of Humanin; however, both cytosolic and mitochondrial forms of Humanin were tested and the results were the same.
The following experiments confirm an interaction between Humanin and Bax. Similar experiments were performed to confirm an interaction between Humanin and Bid.

t-Bid [2] = molecular target: T2, t-Bid; assay: Bid-induced apoptosis in CSM14.1 cells (DAPI staining); assay type: cell-based; design: expressed in transfected cells; host or cells: CSM14.1 rat hippocampal neuronal cells; details: 24 hours after transfection
Experimental: Apoptosis was examined by DAPI staining. The data shown were obtained using the cytosolic form of Humanin; however, both cytosolic and mitochondrial forms of Humanin were tested and the results were the same.
Rat neuronal cell line CSM14.1 cells were transfected with various plasmids using the Lipofectamine reagent (Invitrogen). For transfection, 10×10^5 cells were plated per well using 6 well plates. Each well received 1 μg DNA plus […] of Lipofectamine. After 24 hours of transfection, the percentage of cell death was determined using 4′-6-diamidino-2-phenylindole (DAPI) staining. […] The data shown were obtained using the cytosolic form of Humanin; however, both cytosolic and mitochondrial forms of Humanin were tested and the results were the same.

T1 sequence (Q07812 whole entry): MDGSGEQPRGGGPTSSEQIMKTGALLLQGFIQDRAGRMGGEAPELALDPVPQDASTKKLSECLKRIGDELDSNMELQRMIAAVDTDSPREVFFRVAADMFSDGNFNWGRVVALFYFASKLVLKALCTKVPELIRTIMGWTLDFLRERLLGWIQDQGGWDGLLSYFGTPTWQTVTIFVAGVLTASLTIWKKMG

co-localization with RFP-Bax (RFP-Bax) | Substance | interaction with t-Bid by co-immunoprecipitation (t-Bid [1]) | Bid-induced apoptosis (t-Bid [2])
co-localized | GFP-HN: Wild-type full-length Humanin fused to Green Fluorescent Protein | – | –
– | Humanin: 24 amino acid polypeptide, cytosolic form of human Humanin (SEQ ID NO:2); used as synthetic peptide or expressed fusion | found to interact | decreased
